Laboratory results as given in paper PMC4976026 (The Journal of allergy and clinical immunology, 2016).

Target: T1, tGFP-tagged Rab27a R82C (human, UniProt P51159 1-221, R82C)
T1 sequence (looked up): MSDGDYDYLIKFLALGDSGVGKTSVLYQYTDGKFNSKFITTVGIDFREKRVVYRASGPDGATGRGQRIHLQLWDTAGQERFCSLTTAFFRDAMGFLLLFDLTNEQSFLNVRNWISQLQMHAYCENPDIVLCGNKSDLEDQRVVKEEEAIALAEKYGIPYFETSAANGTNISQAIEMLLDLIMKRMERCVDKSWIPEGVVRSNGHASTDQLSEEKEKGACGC
Assay: co-IP

fold melanophilin coprecipitated relative to Rab27a D74H: 2.7 ± 1.4 fold
B1: melanophilin (natural protein, human (endogenous in mel1106), UniProt Q9BV36 1-600, looked up)
chain: MGKKLDLSKLTDEEAQHVLEVVQRDFDLRRKEEERLEALKGKIKKESSKRELLSDTAHLNETHCARCLQPYQLLVNSKRQCLECGLFTCKSCGRVHPEEQGWICDPCHLARVVKIGSLEWYYEHVKARFKRFGSAKVIRSLHGRLQGGAGPELISEERSGDSDQTDEDGEPGSEAQAQAQPFGSKKKRLLSVHDFDFEGDSDDSTQPQGHSLHLSSVPEARDSPQSLTDESCSEKAAPHKAEGLEEADTGASGCHSHPEEQPTSISPSRHGALAELCPPGGSHRMALGTAAALGSNVIRNEQLPLQYLADVDTSDEESIRAHVMASHHSKRRGRASSESQIFELNKHISAVECLLTYLENTVVPPLAKGLGAGVRTEADVEEEALRRKLEELTSNVSDQETSSEEEEAKDEKAEPNRDKSVGPLPQADPEVGTAAHQTNRQEKSPQDPGDPVQYNRTTDEELSELEDRVAVTASEVQQAESEVSDIESRIAALRAAGLTVKPSGKPRRKSNLPIFLPRVAGKLGKRPEDPNADPSSEAKAMAVPYLLRRKFSNSLKSQGKDDDSFDRKSVYRGSLTQRNPNARKGMASHTFAKPVVAHQS
